In article PMC9188544, “Mechanism of glycogen synthase inactivation and interaction with glycogenin” (Nature Communications, 2022):

Columns and labels:
Experiment in all cases: co-purification (HisTrap, TEV cleavage, Ni subtraction, Superdex200 gel filtration); GS WT or mutant co-expressed with GN(Y195F) in insect cells, both with N-terminal His6-TEV; lysate loaded on the HisTrap column
Conditions in all cases: partners not purified
[1] = target: T1, human glycogen synthase 1 (GS1) R603A (human, UniProt P13807 1-737, R603A, phosphorylation at S8, S641 and S641/S645 probed by immunoblot (Fig. 4b))
T1 construct: glycogen synthase 1 (muscle), human, encoded by GYS1, cDNA NM 002103; also called GS R603A; not shown: His6, N-terminal, cleaved
T1 sequence (looked up): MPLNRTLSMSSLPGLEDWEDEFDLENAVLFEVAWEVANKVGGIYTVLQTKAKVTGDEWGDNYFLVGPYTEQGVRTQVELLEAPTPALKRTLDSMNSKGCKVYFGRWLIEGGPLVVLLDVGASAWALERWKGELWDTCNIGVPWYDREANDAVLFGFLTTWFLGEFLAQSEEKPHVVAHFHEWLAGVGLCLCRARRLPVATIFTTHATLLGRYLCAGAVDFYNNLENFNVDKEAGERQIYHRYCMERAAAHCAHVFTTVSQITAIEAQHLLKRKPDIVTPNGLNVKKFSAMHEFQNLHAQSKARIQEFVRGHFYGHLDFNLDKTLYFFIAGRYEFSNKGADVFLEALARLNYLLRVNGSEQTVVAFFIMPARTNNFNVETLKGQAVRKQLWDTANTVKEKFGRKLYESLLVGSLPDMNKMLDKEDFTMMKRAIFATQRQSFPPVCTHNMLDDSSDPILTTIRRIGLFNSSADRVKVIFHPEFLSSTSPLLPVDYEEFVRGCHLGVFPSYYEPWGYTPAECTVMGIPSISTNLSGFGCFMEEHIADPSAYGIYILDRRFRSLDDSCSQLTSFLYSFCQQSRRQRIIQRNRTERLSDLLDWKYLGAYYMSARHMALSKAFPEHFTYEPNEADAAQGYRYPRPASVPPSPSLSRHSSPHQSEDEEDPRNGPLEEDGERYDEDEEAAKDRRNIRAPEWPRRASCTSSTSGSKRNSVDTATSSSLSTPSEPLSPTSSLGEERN

[2] = target: T2, human glycogen synthase 1 (GS1) W18A (human, UniProt P13807 1-737, W18A, phosphorylation at S8, S641 and S641/S645 probed by immunoblot (Fig. 4b))
T2 construct: glycogen synthase 1 (muscle), human, encoded by GYS1, cDNA NM 002103; also called GS W18A; not shown: His6, N-terminal, cleaved
T2 sequence (looked up): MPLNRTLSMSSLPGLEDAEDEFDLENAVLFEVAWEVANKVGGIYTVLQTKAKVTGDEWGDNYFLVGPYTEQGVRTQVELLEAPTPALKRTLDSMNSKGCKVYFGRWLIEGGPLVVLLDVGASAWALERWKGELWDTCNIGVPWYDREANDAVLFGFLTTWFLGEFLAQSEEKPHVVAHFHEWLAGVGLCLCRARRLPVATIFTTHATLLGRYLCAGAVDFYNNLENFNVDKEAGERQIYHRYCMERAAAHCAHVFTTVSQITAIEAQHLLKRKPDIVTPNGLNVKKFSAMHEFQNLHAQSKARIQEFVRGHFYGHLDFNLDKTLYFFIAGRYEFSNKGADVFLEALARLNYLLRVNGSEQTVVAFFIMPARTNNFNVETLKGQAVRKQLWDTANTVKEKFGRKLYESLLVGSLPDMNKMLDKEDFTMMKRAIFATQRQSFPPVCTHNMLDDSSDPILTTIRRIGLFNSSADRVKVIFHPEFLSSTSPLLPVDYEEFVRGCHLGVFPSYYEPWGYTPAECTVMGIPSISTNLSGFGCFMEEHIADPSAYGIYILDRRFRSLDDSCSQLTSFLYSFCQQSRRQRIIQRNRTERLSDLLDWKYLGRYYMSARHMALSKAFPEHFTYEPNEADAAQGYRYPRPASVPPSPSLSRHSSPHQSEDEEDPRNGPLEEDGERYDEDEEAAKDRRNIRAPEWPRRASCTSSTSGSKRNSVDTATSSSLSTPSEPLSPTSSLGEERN

[3] = target: T3, human glycogen synthase 1 (GS1), wild type, pFastBac construct with N-terminal His6-TEV, co-expressed with … (human, UniProt P13807 1-737, phosphorylation at S8, S641 and S641/S645 probed by immunoblot (Fig. 4b))
T3 construct: glycogen synthase 1 (muscle), human, encoded by GYS1, cDNA NM 002103; also called GS WT; WT GS; not shown: His6, N-terminal, cleaved
T3 sequence (looked up): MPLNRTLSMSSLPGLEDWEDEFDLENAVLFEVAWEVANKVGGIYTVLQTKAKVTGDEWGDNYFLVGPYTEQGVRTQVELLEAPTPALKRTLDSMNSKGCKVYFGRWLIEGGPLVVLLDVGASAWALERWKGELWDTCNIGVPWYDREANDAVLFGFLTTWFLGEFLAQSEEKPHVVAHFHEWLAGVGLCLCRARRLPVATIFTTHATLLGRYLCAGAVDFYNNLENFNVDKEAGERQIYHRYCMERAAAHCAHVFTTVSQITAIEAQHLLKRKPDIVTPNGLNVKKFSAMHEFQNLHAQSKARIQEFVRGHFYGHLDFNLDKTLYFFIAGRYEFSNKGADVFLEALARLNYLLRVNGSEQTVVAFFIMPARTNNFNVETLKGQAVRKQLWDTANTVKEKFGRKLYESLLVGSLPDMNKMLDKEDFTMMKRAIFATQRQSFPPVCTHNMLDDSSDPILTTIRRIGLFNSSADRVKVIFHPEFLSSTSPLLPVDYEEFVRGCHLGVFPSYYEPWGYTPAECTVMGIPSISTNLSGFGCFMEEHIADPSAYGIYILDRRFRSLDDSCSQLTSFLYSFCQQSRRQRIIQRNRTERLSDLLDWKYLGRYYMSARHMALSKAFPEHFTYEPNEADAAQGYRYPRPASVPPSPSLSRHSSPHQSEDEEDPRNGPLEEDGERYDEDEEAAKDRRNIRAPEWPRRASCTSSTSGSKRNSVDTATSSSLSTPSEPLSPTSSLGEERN

Measured: binding result

B1: human glycogenin 1 (GN1) Y195F, full length, non-glucosylated (enzyme, UniProt P46976-2 1-333, looked up)
chain: MTDQAFVTLTTNDAYAKGALVLGSSLKQHRTTRRLVVLATPQVSDSMRKVLETVFDEVIMVDVLDSGDSAHLTLMKRPELGVTLTKLHCWSLTQYSKCVFMDADTLVLANIDDLFDREELSAAPDPGWPDCFNSGVFVYQPSVETYNQLLHLASEQGSFDGGDQGILNTFFSSWATTDIRKHLPFIYNLSSISIFSYLPAFKVFGASAKVVHFLGRVKPWNYTYDPKTKSVKSEAHDPNMTHPEFLILWWNIFTTNVLPLLQQFGLVKDTCSYVNVEDVSGAISHLSLGEIPAMAQPFVSSEERKERWEQGQADYMGADSFDNIKRKLDTYLQ
notes: glycogenin 1, human, encoded by GYG1, cDNA NM 001184720, full length; expected ~37.5 kDa; the C-terminal GN34 region is modelled as residues 300-332, which fits the 333-residue isoform; Cloned in pFL (with untagged GS) and in pFastBac (co-infected with His6-TEV-GS WT or mutants); Both carry an N-terminal His6 tag and a cleavable site, so they are treated as one molecule; also called GN(Y195F); GN …
binds: all assays above
